Substrate in the data set: CN(C)CCCNC(=O)c1cc(SSc2ccc([N+](=O)[O-])c(C(=O)NCCCN(C)C)c2)ccc1[N+](=O)[O-]
Put plainly: purified protein, by the assay type. The following applies: other: substrate of recombinant TcTR, 25° C., buffer A pH 7.25, 0.2 mM NADPH, * = estimated at low substrate concentrations (15-200 μM), inhibition effects.

Description: The TcTR concentration is determined by measuring the number of subunits containing FAD at 461 nm (ε=11.3 mM^−1×cm^−1); the enzymatic activity is tested as specified in (28). One TR unit corresponds to 1 μmol of T(S)2 reduced per minute at 25° C. in a buffer A (20 mM Hepes, pH 7.25 containing 1 mM EDTA and 0.15 M KCl).
The enzyme stock solutions used for the kinetic determinations are pure (verification in SDS-PAGE) and have a specific activity of 137 U/mg in the T(S)2 reduction test performed in the presence of 500 μM NADPH and 518 μM T(S)2 in a buffer A.
All the kinetic studies are carried out in the same buffer at 25° C., in the presence of 200 μM of NADPH.
All the tests were carried out at 25° C. in 20 mM HEPES, 1 Mm EDTA, 150 mM KCl, at pH 7.25 (buffer A) and in the presence of 0.2 mM NADPH.

B1: trypanothione reductase from Trypanosoma cruzi (TcTR) (Trypanosoma cruzi) (protein)
chain: MMSKIFDLVVIGAGSGGLEAAWNAATLYKKRVAVIDVQMVHGPPFFSALGGTCVNVGCVPKKLMVTGAQYMEHLRESAGFGWEFDRTTLRAEWKKLIAVKDEAVLNINKSYEEMFRDTEGLEFFLGWGSLESKNVVNVRESADPASAVKERLETENILLASGSWPHMPNIPGIEHCISSNEAFYLPEPPRRVLTVGGGFISVEFAGIFNAYKPKDGQVTLCYRGEMILRGFDHTLREELTKQLTANGIQILTKENPAKVELNADGSKSVTFESGKKMDFDLVMMAIGRSPRTKDLQLQNAGVMIKNGGVQVDEYSRTNVSNIYAIGDVTNRVMLTPVAINEAAALVDTVFGTNPRKTDHTRVASAVFSIPPIGTCGLIEEVASKRYEVVAVYLSSFTPLMHNISGSKYKTFVAKIITNHSDGTVLGVHLLGDNAPEIIQGVGICLKLNAKISDFYNTIGVHPTSAEELCSMRTPSYYYVKGEKMEKPSEASL
Usually Km stands for the substrate concentration at which the rate is half of its maximum. By kcat is commonly meant the maximal rate divided by the concentration of active sites. By kcat/Km is commonly meant the second-order rate constant that governs catalysis at low substrate concentration. B1: the Michaelis-Menten constant (Km) is 35 µM, the catalytic constant (kcat) was 125 s⁻¹ and the kcat/Km is 3.6e+06 M⁻¹ s⁻¹.

The values above are taken from US20030175848A1, “Substituted dithiobisnitrobenzenes and their applications” (Institut Pasteur De Lille, priority 1998, published 2003).
